Target: T1, S. mutans ComD protein (histidine kinase) (Streptococcus mutans)
T1 chain: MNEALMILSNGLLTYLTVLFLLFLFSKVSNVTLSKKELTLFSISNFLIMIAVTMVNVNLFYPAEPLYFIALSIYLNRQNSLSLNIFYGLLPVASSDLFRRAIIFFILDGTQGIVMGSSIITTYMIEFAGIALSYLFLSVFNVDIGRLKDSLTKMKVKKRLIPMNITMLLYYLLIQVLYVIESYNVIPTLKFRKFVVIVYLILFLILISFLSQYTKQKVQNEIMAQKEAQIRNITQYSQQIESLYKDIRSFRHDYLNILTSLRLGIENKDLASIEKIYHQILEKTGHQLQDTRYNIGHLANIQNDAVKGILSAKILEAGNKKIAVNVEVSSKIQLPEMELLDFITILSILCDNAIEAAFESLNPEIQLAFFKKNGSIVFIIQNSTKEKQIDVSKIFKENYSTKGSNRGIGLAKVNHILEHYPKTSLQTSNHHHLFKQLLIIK
Assay: cell-based or functional assay

| Binder | Biofilm formation (SDM-glucose), S. mutans UA159, 5 µg/ml peptide |
| --- | --- |
| SGTLSTFFRLFNRSFTQA [Peptide analog B3 (JH1005 CSP sequence)] | 34.4 % biomass (reduction) |
| SGSLSTFFRLFNRSFTQALK [Peptide analog F1] | 36.7 % biomass (reduction) |
| SGSLSTFFRLFNRSFTQAGK [Peptide analog G1] | 24.4 % biomass (reduction) |
| SGSLSTFFRLFNRSFTQALGV [Peptide analog F2] | 38.7 % biomass (reduction) |
| SGSLSTFFRLFNRSFTQALGA [Peptide analog G2] | 35.6 % biomass (reduction) |
| SGSLSTFFRLFNASFTQALGK [Peptide analog E2] | 38.9 % biomass (reduction) |

Target: T1, S. mutans ComD protein (histidine …)
Assay: cell-based or functional assay
Remark: another data set of the same source

| Binder | Transformation efficiency (vs no CSP), S. mutans wild-type UA159, 5 µg/ml peptide |
| --- | --- |
| SGTLSTFFRLFNRSFTQA [Peptide analog B3 (JH1005 CSP sequence)] | 195 fold increase (vs no CSP) |
| SGSLSTFFRLFNRSFTQALGK [S. mutans competence signal peptide (CSP), mature wild-type CSP sequence] | 1550 fold increase (vs no CSP) |
| SGSLSTFFRLFNRSFTALGK [Peptide analog A2] | 125 fold increase (vs no CSP) |
| SGSLSTFFRLFNRSFTQLGK [Peptide analog H1] | 18 fold decrease (vs no CSP) |
| SGSLSTFFRLFNRSFTQALK [Peptide analog F1] | 541 fold increase (vs no CSP) |
| SGSLSTFFRLFNRSFTQAGK [Peptide analog G1] | 848 fold increase (vs no CSP) |
| SGSLSTFFRLFNRSFTQALGV [Peptide analog F2] | 543 fold increase (vs no CSP) |
| SGSSTFFRLFNRSFTQALGK [Peptide analog D1] | 275 fold increase (vs no CSP) |
| SGSLSTFFRLFNRSFTQALGA [Peptide analog G2] | 56 fold increase (vs no CSP) |
| SGSLSTFFRLFNASFTQALGK [Peptide analog E2] | 252 fold increase (vs no CSP) |
| SGSLSTFFALFNRSFTQALGK [Peptide analog C2] | 32 fold increase (vs no CSP) |
| SGSLSTFFRLFNVSFTQALGK [Peptide analog D2] | 99 fold increase (vs no CSP) |
| SGSLSTFFVLFNRSFTQALGK [Peptide analog B2] | 4 fold increase (vs no CSP) |
| SGSLTFFRLFNRSFTQALGK [Peptide analog E1] | 791 fold increase (vs no CSP) |

From patent US20100016234A1, “SIGNAL PEPTIDES, NUCLEIC ACID MOLECULES AND METHODS FOR TREATMENT OF CARIES” (The Governing Council of the University of Toronto, published 2010)
